This assay addresses T1, protein A (immobilized on a protein A column) (UniProt P38507 37-327).
T1 construct: Other paragraphs mention recombinant protein A on agarose and ProSep-vA-Ultra resin; also called protein A resin
The experiment in a line: protein A column equilibrated with 20 mM TRIS pH 8, after papain digestion. The protocol: Purified, intact anti-S1P IgG was digested with activated papain (incubated 10 mg/ml papain in 5.5 mM cysteine-HCL, 1 mM EDTA, 70 μM 2-mercaptoethanol for 0.5 hours at 37° C.) in digestion buffer (100:1 LT1009:papain in 50 mM sodium phosphate pH 7.2, 2 mM EDTA). After 2 hours at 37° C., the protease reaction was quenched with 50 mM iodoacetamide, dialyzed against 20 mM TRIS pH 9, and loaded onto 2×5 ml HiTrap Q columns. The bound protein was eluted with a linear gradient of 20 mM TRIS pH 8, 0.5 M NaCl and collected in 4 ml fractions. The fractions containing the anti-S1P Fab fragment were pooled and loaded onto a protein A column equilibrated with 20 mM TRIS pH 8. The intact antibody and the Fc fragment bound to the resin, while the Fab fragment was present in the flow through fraction. The Fab fragment was concentrated using a centricon-YM30 centrifugal concentrator (Millipore, Cat No 4209), dialyzed against 25 mM HEPES pH 7, and stored at 4° C.

B1: LT1009 Fab fragment (anti-S1P Fab fragment, from papain digestion) (Fab)
heavy: EVQLVQSGAEVKKPGESLKISCQSFGYIFIDHTIHWMRQMPGQGLEWMGAISPRHDITKYNEMFRGQVTISADKSSSTAYLQWSSLKASDTAMYFCARGGFYGSTIWFDFWGQGTMVTVSSASTKGPSVFPLAPSSKSTSGGTAALGCLVKDYFPEPVTVSWNSGALTSGVHTFPAVLQSSGLYSLSSVVTVPSSSLGTQTYICNVNHKPSNTKVDKRVEPKSCDKTH
light: ETTVTQSPSFLSASVGDRVTITCITTTDIDDDMNWFQQEPGKAPKLLISEGNILRPGVPSRFSSSGYGTDFTLTISKLQPEDFATYYCLQSDNLPFTFGQGTKLEIKRTVAAPSVFIFPPSDEQLKSGTASVVCLLNNFYPREAKVQWKVDNALQSGNSQESVTEQDSKDSTYSLSSTLTLSKADYEKHKVYACEVTHQGLSSPVTKSFNRGEC
On to B1, for which the binding result is “no binding”.

(Values after patent US20100292443A1 (published 2010).)
